Patent US7105647 (WISCONSIN ALUMNI RESEARCH FOUNDATION, dated 2006)

B1: LexA control (other, UniProt P0A7C2 1-202, looked up)
chain: MKALTARQQEVFDLIRDHISQTGMPPTRAEIAQRLGFRSPNAAEEHLKALARKGVIEIVSGASRGIRLLQEEEEGLPLVGRVAAGEPLLAQQHIEGHYQVDPSLFKPNADFLLRVSGMSMKDIGIMDGDLLAVHKTQDVRNGQVVVARIDDEVTVKRLKKQGNKVELLPENSEFKPIVVDLRQQSFTIEGLAVGVIRNGDWL
B2: human aryl hydrocarbon receptor (AHR), full length (receptor, UniProt P35869 1-848, looked up)
chain: MNSSSANITYASRKRRKPVQKTVKPIPAEGIKSNPSKRHRDRLNTELDRLASLLPFPQDVINKLDKLSVLRLSVSYLRAKSFFDVALKSSPTERNGGQDNCRAANFREGLNLQEGEFLLQALNGFVLVVTTDALVFYASSTIQDYLGFQQSDVIHQSVYELIHTEDRAEFQRQLHWALNPSQCTESGQGIEEATGLPQTVVCYNPDQIPPENSPLMERCFICRLRCLLDNSSGFLAMNFQGKLKYLHGQKKKGKDGSILPPQLALFAIATPLQPPSILEIRTKNFIFRTKHKLDFTPIGCDAKGRIVLGYTEAELCTRGSGYQFIHAADMLYCAESHIRMIKTGESGMIVFRLLTKNNRWTWVQSNARLLYKNGRPDYIIVTQRPLTDEEGTEHLRKRNTKLPFMFTTGEAVLYEATNPFPAIMDPLPLRTKNGTSGKDSATTSTLSKDSLNPSSLLAAMMQQDESIYLYPASSTSSTAPFENNFFNESMNECRNWQDNTAPMGNDTILKHEQIDQPQDVNSFAGGHPGLFQDSKNSDLYSIMKNLGIDFEDIRHMQNEKFFRNDFSGEVDFRDIDLTDEILTYVQDSLSKSPFIPSDYQQQQSLALNSSCMVQEHLHLEQQQQHHQKQVVVEPQQQLCQKMKHMQVNGMFENWNSNQFVPFNCPQQDPQQYNVFTDLHGISQEFPYKSEMDSMPYTQNFISCNQPVLPQHSKCTELDYPMGSFEPSPYPTTSSLEDFVTCLQLPENQKHGLNPQSAIITPQTCYAGAVSMYQCQPEPQHTHVGQMQYNPVLPGQQAFLNKFQNGVLNETYPAELNNINNTQTTTHLQPLHHPSEARPFPDLTSSGFL
notes: Full length in yeast (PRSAHR) and in the Hsp90 co-IP (huAHR); also called huAHR; Ah receptor
B3: MOP4 (other)
chain: MDEDEKDRAKRASRNKSEKKRRDQFNVLIKELSSMLPGNTRKMDKTTVLEEVIGFLQKHNEVSAQTEICDIQQDWKPSFLSNEEFTQLMLEALDGFIIAVTTDGSIIYVSDSITPLLGHLPSDVMDQNLLNFLPEQEHSEVYKILSSHMLVTDSPSPEYLKSDGDLEFYCHLLRGSLNPKEFPTYEYIKFVGNFRSYNNVPSPSCNGFDNTLSRPCRVPLGKEVCFIATVRLATPQFLKEMCIVDEPLEEFTSRHSLEWKFLFLDHRAPPIIGYLPFEVLGTSGYDYYHIDDLELLARCHQHLMQFGKGKSCCYRFLTKGQQWIWLQTHYYITYHQWNSKPEFIVCTHSVVSYADVRVERRQELALEDPPSEALHSSALKDKGSSLEPRQHFNALDVGASGLNTSHSPSASSRSSHKSSHTAMSEPTSTPTKLMAEASTPALPRSATLPQELPVPGLSQAATMPAPLPSPSSCDLTQQLLPQTVLQSTPAPMAQFSAQFSMFQTIKDQLEQRTRILQANIRWQQEELHKIQEQLCLVQDSNVQMFLQQPAVSLSFSSTQRPEAQQQLQQRSAAVTQPQLGAGPQLPGQISSAQVTSQHLLRESSVISTQGPKPMRSSQLMQSSGRS
notes: also called huMOP4
B4: MOP6 (other)
chain: MAPTKPSFQQDPSRRERLQALRKEKSRDAARSRRGKENFEFYELAKLLPLPAAITSQLDKASIIRLTISYLKMRDFANQGDPPWNLRMEGPPPNTSVKGAQRRRSPSALAIEVFEAHLGSHILQSLDGFVFALNQEGKFLYISETVSIYLGLSQVELTGSSVFDYVHPGDHVEMAEQLGMKLPPGRGLLSQGTAEDGASSASSSSQSETPEPVESTSPSLLTTDNTLERSFFIRMKSTLTKRGVHIKSSGYKVIHITGRLRLRVSLSHGRTVPSQIMGLVVVAHALPPPTINEVRIDCHMFVTRVNMDLNIIYCENRISDYMDLTPVDIVGKRCYHFIHAEDVEGIRHSHLDLLNKGQCVTKYYRWMQKNGGYIWIQSSATIAINAKNANEKNIIWVNYLLSNPEYKDTPMDIAQLPHLPEKTSESSETSDSESDSKDTSGITEDNENSKSDEKGNQSENSEDPEPDRKKSGNACDNDMNCNDDGHSSSNPDSRDSDDSFEHSDFENPKAGEDGFGALGAMQIKVERYVESESDLRLQNCESLTSDSAKDSDSAGEAGAQASSKHQKRKKRRKRQKGGSASRRRLSSASSPGGLDAGLVEPPRLLSSPNSASVLKIKTEISEPINFDNDSSIWNYPPNREISRNESPYSMTKPPSSEHFPSPQGGGGGGGGGGGLHVAIPDSVLTPPGADG
notes: Mentioned only in the general description
B5: LexAbHLH-PAS fusion of CLOCK (PL828) (other, UniProt P0A7C2 1-202, looked up)
chain: MKALTARQQEVFDLIRDHISQTGMPPTRAEIAQRLGFRSPNAAEEHLKALARKGVIEIVSGASRGIRLLQEEEEGLPLVGRVAAGEPLLAQQHIEGHYQVDPSLFKPNADFLLRVSGMSMKDIGIMDGDLLAVHKTQDVRNGQVVVARIDDEVTVKRLKKQGNKVELLPENSEFKPIVVDLRQQSFTIEGLAVGVIRNGDWLMLFTVSCSKMSSIVDRDDSSIFDGLVEEDDKDKAKRVSRNKSEKKRRDQFNVLIKELGSMLPGNARKMDKSTVLQKSIDFLRKHKEITAQSDASEIRQDWKPTFLSNEEFTQLMLEALDGFFLAIMTDGSIIYVSESVTSLLEHLPSDLVDQSIFNFIPEGEHSEVYKILSTHLLESDSLTPEYLKSKNQLEFCCHMLRGTIDPKEPSTYEYVKFIGNFKSLNSVSSSAHNGFEGTIQRTHRPSYEDRVCFVATVRLATPQFIKEMCTVEEPNEEFTSRHSLEWKFLFLDHRAPPIIGYLPFEVLGTSGYDYYHVDDLENLAKCHEHLMQYGKGKSCYYRFLTKGQQWIWLQTHYYITYHQWNSRPEFIVCTHTVVSYAEVRAERRRELG
notes: range 1-202;domain: bHLH-PAS domains; also called LexA fusion of CLOCK

Assays:
[1] = molecular target: T1, AH receptor nuclear translocator (ARNT), full length (human, UniProt P27540 1-789); assay: yeast interaction trap (mating), X-Gal overlay
T1 construct: Full length: in vitro translated, expressed in yeast (PL574) or transfected; Endogenous ARNT in the Hep3B experiment; also called huARNT; hARNT
T1 sequence (P27540 whole entry): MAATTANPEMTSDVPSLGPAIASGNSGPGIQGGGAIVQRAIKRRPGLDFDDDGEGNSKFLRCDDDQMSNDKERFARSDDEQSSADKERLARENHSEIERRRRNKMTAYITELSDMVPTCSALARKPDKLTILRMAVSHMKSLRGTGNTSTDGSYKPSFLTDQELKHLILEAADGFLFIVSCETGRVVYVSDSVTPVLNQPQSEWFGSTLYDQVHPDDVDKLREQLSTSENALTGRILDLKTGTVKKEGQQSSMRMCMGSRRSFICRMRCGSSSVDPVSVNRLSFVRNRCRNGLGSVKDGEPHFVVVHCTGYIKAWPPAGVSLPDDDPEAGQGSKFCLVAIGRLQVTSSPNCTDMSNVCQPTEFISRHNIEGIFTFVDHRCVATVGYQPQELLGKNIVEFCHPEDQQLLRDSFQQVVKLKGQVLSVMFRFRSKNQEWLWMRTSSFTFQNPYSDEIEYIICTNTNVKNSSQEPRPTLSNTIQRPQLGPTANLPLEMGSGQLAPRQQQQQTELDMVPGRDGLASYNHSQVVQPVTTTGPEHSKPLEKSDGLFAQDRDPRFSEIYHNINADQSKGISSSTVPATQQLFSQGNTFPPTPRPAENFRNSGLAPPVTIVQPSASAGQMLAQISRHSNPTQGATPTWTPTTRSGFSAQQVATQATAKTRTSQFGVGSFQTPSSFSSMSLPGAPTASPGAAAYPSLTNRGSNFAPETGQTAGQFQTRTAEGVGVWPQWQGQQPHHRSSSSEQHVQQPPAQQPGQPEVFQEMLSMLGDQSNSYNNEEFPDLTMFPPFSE
Method: Interaction Screen Against Known bHLH-PAS Proteins. LexAbHLH-PAS fusion proteins ("baits") of HIF1α, HIF2α, MOP3, MOP4, AHR, ARNT, and CLOCK were transformed into the L40 strain of yeast. The full-length ("fish") MOP3 and ARNT plasmids were transformed into the AMR70 yeast strain, and these transformants were plated onto yeast complete media plates (Kaiser et al., 1994, in *Methods in Yeast Genetics*, Cold Spring Harbor Press, Plainview, N.Y.). The L40 yeast harboring the bait constructs were replica plated onto these yeast complete media plates and mated for 8 hr at 30° C. The plates were then replica plated onto selective media and grown for an additional day at 30° C. 5-Bromo-4-chloro-3-indolyl […]-galactoside (X-Gal) overlay assays were performed to determine the relative expression of the lacZ reporter gene (Bohen and Yamamoto, 1993, PNAS 90: 11424–11428). Western blot analysis, using LexA-specific sera, was performed on extract from each transformant to confirm expression of the fusion protein (see Example 1).

[2] = molecular target: T2, Hsp90; assay: co-IP of 35S-labelled in vitro translated protein with anti-Hsp90 antibody 3G3p90, phosphoimager
T2 construct: Endogenous Hsp90 of the translation lysate
Method: Coimmunoprecipitation with Hsp90. Each MOP construct was in vitro translated in the presence of [^35S]-methionine in a TNT coupled transcription/translation system (Promega). Hsp90 immunoprecipitation assays were performed with monoclonal antibody 3G3p90 or a control IgM antibody, TEPC 183 (Sigma) essentially as described. Each immunoprecipitation was subjected to SDS-PAGE, and the resulting gel was dried. The level of radioactivity in each coprecipitated protein band was quantified on a Bio-Rad GS-363 Molecular Imager System. The amount of protein immunoprecipitated with the Hsp90 antibody is presented as a percentage of the amount of murine AHR immunoprecipitated in parallel assays.
4. Interaction of MOPs with Hsp90. In an effort to assess a MOP's ability to interact with Hsp90, we performed coimmunoprecipitation assays with anti Hsp90 antibodies. Given the remarkable stability of the Hsp90 complex with the AHR from the C57BL/6J mouse, we used this receptor species as a reference and compared all interactions relative to it. As additional controls, we immunoprecipitated ARNT and the human AHR as negative and positive controls, respectively. Despite our ability to readily detect huAHR-Hsp90 interactions, we were unable to detect ARNT, MOP2 or MOP5 interactions with Hsp90. In contrast, huAHR, MOP1, MOP3 and MOP4 all immunoprecipitated with HSP90-specific antisera. […]

[3] = molecular target: B2; assay: co-IP of 35S-labelled in vitro translated protein with AHR-specific antiserum
Method: (§1) 1. Interaction of MOPs with the AHR and ARNT in vitro; Coimmunoprecipitation experiments. We first performed coimmunoprecipitation experiments to determine if MOPs 1–4 had the capacity to interact with either the AHR or ARNT in vitro. These proteins were expressed in a reticulocyte lysate system in the presence of ^35S-methionine and then incubated in the presence or absence of the AHR or ARNT. Complex formation was assayed by coimmunoprecipitation with AHR or ARNT specific antisera, followed by quantitation of coimmunoprecipitated ^35S-labeled MOP by phosphoimage analysis. Interactions were identified by a reproducible increase in an AHR or ARNT-dependent precipitation of MOP protein. Because we have observed considerable variability in this coimmunoprecipitation assay, each experiment was performed at least three times.

[4] = molecular target: T1, AH receptor nuclear translocator …; assay: co-IP of 35S-labelled in vitro translated protein with ARNT-specific antiserum
Method: as §1

[5] = molecular target: T1, AH receptor nuclear translocator …; assay: functional data, assay not described

binding result [1]	percent of the amount of murine AHR immunoprecipitated with the Hsp90 antibody [2]	Binder	other results
no binding		B1	
	53%	B2	
	31%	B3	binding result [3]: no binding; binding result [4]: no binding
		B4	binding result [5]: binds
no binding		B5	
